Results from patent publication US20220033460A1, “IDENTIFICATION AND USE OF T CELL EPITOPES IN DESIGNING DIAGNOSTIC AND THERAPEUTIC APPROACHES FOR COVID-19” (priority 2020, published 2022).
Where two headings read alike, the source gives them in different places.

Assays:
I-Ab (mouse), P14434 = biological target: T1, I-Ab (mouse), P14434; experiment: biochemically tested I-Ab binding affinity (method not told)
T1 chain 1: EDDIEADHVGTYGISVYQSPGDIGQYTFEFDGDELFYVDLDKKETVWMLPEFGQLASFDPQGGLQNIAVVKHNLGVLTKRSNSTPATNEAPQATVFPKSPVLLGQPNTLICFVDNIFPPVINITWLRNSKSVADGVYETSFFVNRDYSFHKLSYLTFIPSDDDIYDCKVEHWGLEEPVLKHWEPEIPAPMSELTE
T1 chain 2: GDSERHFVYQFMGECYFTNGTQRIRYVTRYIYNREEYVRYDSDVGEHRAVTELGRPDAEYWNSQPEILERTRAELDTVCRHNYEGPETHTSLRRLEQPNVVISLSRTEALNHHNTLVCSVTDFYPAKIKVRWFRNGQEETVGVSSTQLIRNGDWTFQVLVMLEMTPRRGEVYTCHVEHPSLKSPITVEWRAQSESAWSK

DRB01*04:04 [1] = conditions: chains peptide; modification not given
DRB01*15:01 [2] = conditions: chains peptide; modification not given
DRB1*07:01 [3] = conditions: modification not given
[4] = biological target: SARS-CoV-2 peptide on HLA-A*02:01 (human); experiment: barcoded tetramer library on ex vivo CD8+ T cells, single-cell sequencing; T cell clone or line; conditions: chains Valpha:Vbeta
DRB01*07:01 = conditions: chains peptide; modification not given
DRB01*04:04 [5] = conditions: chains peptide; modification not given; remark: listed apart in the source
DRB01*11:01 = conditions: chains peptide; modification not given
DRB01*15:01 [6] = conditions: chains peptide; modification not given; remark: listed apart in the source
[7] = biological target: M protein peptide on HLA-A*02:01 (human); experiment: barcoded tetramer library on ex vivo CD8+ T cells, single-cell sequencing; T cell clone or line; conditions: chains Valpha:Vbeta
DRB1*15:01 [8] = conditions: modification not given
DRB1*15:01 [9] = conditions: modification not given; remark: listed apart in the source
DRB1*07:01 [10] = conditions: modification not given; remark: listed apart in the source

AWENTTIDLTSEKPA (modifications not checked) […]
IC50 (I-Ab (mouse), P14434): 10 µM

VILRGHLRIAGHHLGRCDIKDLP [SEQ ID NO 310]
IC50 (DRB01*04:04 [1]): 1.91 µM
IC50 (DRB01*15:01 [2]): 5.43 µM

PQIITTDNTFVSGNC [… (position 1112)]
IC50 (DRB1*07:01 [3]): 7.37 µM

B1: TCR_93 (protein)
chain 1: ILNVEQSPQSLHVQEGDSTNFTCSFPSSNFYALHWYRWETAKSPEALFVMTLNGDEKKKGRISATLNTKEGYSYLYIKGSQPEDSATYLCALDYGQNFVFGPGTRLSVLP
chain 2: DGGITQSPKYLFRKEGQNVTLSCEQNLNHDAMYWYRQDPGQGLRLIYYSQIVNDFQKGDIAEGYSVSREKKESFPLTVTSAQKNPTAFYLCASSIGSREAFFGQGTRLTVV
No. of Cells [4]: 2 cells

GAVILRGHLRIAGHHLGR [SEQ ID NO 312]
IC50 (DRB01*07:01): 14.5 µM
IC50 (DRB01*04:04 [5]): 9.54 µM
IC50 (DRB01*11:01): 0.383 µM
IC50 (DRB01*15:01 [6]): 3.22 µM

B2: TCR_74 (protein)
chain 1: GQNIDQPTEMTATEGAIVQINCTYQTSGFNGLFWYQQHAGEAPTFLSYNVLDGLEEKGRFSSFLSRSKGYSYLLLKELQMKDSASYLCAVRDLGGQKLLFARGTMLKVDL
chain 2: DAGVTQSPTHLIKTRGQQVTLRCSPKSGHDTVSWYQQALGQGPQFIFQYYEEEERQRGNFPDRFSGHQFPNYSSELNVNALLLGDSALYLCASSLGQGSPAGANVLTFGAGSRLTVL
No. of Cells [7]: 2 cells

STPCNGVEGFNCYFP [… (position 477)]
IC50 (DRB1*15:01 [8]): 6.82 µM

AEIRASANLAATKMS [… (position 1016)]
IC50 (DRB1*15:01 [9]): 0.578 µM
IC50 (DRB1*07:01 [10]): 0.395 µM
